According to US20250002574A1 (SUNSHINE LAKE PHARMA, published 2025):

T1: recombinant human protein antigen hu-IL-11-His tag (human, UniProt P20809 22-199)
T1 construct: also called IL-11-His protein; not shown: His tag
T1 sequence (looked up): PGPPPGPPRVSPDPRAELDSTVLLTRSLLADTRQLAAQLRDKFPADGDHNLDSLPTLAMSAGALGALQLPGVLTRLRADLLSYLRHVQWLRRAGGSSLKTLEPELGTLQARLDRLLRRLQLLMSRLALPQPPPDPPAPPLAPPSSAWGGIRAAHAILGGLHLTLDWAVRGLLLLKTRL

T2: IL-11 (UniProt P20809 22-199, limits assumed)
T2 construct: also called IL-11 protein; IL-11 antigen
T2 sequence (looked up): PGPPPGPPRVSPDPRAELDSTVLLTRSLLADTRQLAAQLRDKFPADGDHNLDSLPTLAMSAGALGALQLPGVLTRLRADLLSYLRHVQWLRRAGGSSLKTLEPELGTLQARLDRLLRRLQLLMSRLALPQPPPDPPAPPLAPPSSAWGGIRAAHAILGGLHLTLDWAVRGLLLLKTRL

T3: IL-11 stably expressed on CHO cells (membrane-IL-11 CHO) (UniProt P20809 22-199)
T3 construct: whole, on cells
T3 sequence (looked up): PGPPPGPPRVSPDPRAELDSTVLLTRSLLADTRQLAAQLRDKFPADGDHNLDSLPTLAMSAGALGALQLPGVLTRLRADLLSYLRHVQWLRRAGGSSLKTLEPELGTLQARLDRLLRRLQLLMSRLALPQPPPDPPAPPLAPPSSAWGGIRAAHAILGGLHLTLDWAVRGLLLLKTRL


Tests used:
[1] = target: T1, recombinant human protein antigen …; assay: flow cytometry competition: IL-11-His plus antibody on membrane-IL-11R CHO cells
Protocol: The inventors constructed a cell line (membrane-IL-11R CHO) that stably expressing IL-11R. […] Then 1.5*10\hat{ }5 membrane-IL-11R CHO cells (100 μL/well) were added and incubated for 1 h at room temperature. […] Then, the plate was incubated at 4° C. for 1 h, centrifuged at 1500 rpm for 5 min, washed three times with PBS, and resuspended cells in 180 μl PBS, and detected by flow cytometry.

IL-11 [2] = target: T2, IL-11; assay: SPR Biacore T200, antibody captured, IL-11 6.25-400 nM
Protocol: The measure method included the following steps of capturing the full-length humanized antibody at a flow rate of 10 μL/min. […] The binding time was 180 s, and the dissociation time was 600 s. Finally, the chip was regenerated with 10 mM glycine buffer.

IL-11 [3] = target: T2, IL-11; assay: ELISA on IL-11, monoclonal hybridoma antibody
IL-11 [4] = target: T2, IL-11; assay: flow, IL-11 + antibody on IL-11R cells; lower = more blocking
IL-11 [5] = target: T2, IL-11; assay: BLI (Fortebio), antibody on AHC sensor, IL-11 3.91-125 nM
Protocol: (§1) The determination method consisted of the following steps: the humanized antibody was captured by an AHC sensor. […] Finally, the sensor was regenerated with 10 mM glycine (pH 1.7) buffer.

IL-11 [6] = target: T2, IL-11; assay: BLI (Fortebio), antibody on AHC sensor, IL-11 as analyte
Protocol: as §1

[7] = target: T3, IL-11 stably expressed on CHO cells …; assay: flow cytometry on membrane-IL-11 CHO cells, detection with goat-anti-Fc-FITC
Protocol: The cells were washed 3 times with PBS, and then the flow secondary antibody Goat-anti-Fc-FITC (Abcam, ab98529) was added and detected by flow cytometry. The results were plotted as S-curves in FIG. 11.

Row | Binder | EC50 [1] [µg/mL] | Kd (IL-11 [2]) [nM] | koff (IL-11 [2]) [s⁻¹] | kon (IL-11 [2]) [M⁻¹ s⁻¹] | OD450 (IL-11 [3]) [OD450] | FITC Mean (IL-11 [4]) [mean fluorescence] | Kd (IL-11 [5]) [nM] | koff (IL-11 [5]) [s⁻¹] | kon (IL-11 [5]) [M⁻¹ s⁻¹] | EC50 (read off the curve) [7] [µg/mL] | further results
1 | 3-15D5-6A1 (antibody, human IgG1, kappa, V domains shown) VH: EVKLLESGGGLVQPGGSLKLSCAASGFDFRRYWMSWVRQAPGKGLEWIGQINPDSSMINYTPSLKDKFIISRDNAKNTLYLQMSEVRSEDTALYYCATYGHHATDSWGQGTSVTVSS VL: DIVLTQSPASLAVSLGQRATISCRASESVDSYGNSFMHWYQQKPGQPPKLLIYRASNLESGIPARFSGSGSRTDFTLTINPVEADDVATYYCQQSNEDPFTFGSGTKLEIKR | – | – | – | – | 1.51 | 13600 | – | – | – | – | –
2 | 3-2B5-3D2 (antibody, human IgG1, kappa, V domains shown) VH: QVQLKQSGPGLVLPSQSLSITCTVSGFSLTSYGVHWFRQSPGTGLEWLGVIWSGGITDYNATFIPRLSISKDNSKSQVFFKMNSLQADDTAIYYCARNFDGYYYSIDYWGQGTSVTVSS VL: DIQMTQTTSSLSASLGDRVTISCRASQDISNSLNWYQQKPDGTVKLLIYYTSRLHSGVPSRFTGSGSGTDYSLTISNLEQEDIATYFCQQGNTLPLTFGAGTKLELKR | – | – | – | – | 1.61 | 15300 | – | – | – | – | –
3 | 3-15D5-3A6 (antibody, human IgG1, kappa, V domains shown) VH: QVTLKESGPGILQPSQTLSLTCSFSGFSLSSSGMSVGWIRQPSGKGLEWLAHIWWSDDKSYNPALKSRLTISKDTSNNQVFLKIASVVTADTATYYCAREGSLGYGLDYWGQGTTLTVSS VL: DVLMTQTPLSLPVSLGDQASISCRSSQSIVHTDGNTYLEWYLQKPGQSPKLLIYKVSNRFSGVPDRFSGSGSGTDFTLKISRVEAEDLGVYYCFQGSHVPWTFGGGTKLEIKR | – | – | – | – | 1.69 | 10900 | – | – | – | – | –
4 | 3-7C9-1A6 (antibody, human IgG1, kappa, V domains shown) VH: QVQLKQSGPGLVQPSQSLSITCTVSGFSLTNYGVHWVRQSPGKGLEWLGAIWRGGSTDYNAAFMSRLSITKDNSKSQVFFKMNSLQPDDTAIYYCAKNLYGPAAMDYWGQGTSVTVSS VL: DIQMNQSPSSLSASLGDTITITCHANQNIYVWLSWYQQKPGNIPKLLIYEASNLHTGVPSRFSGSGSGTGFTLTISSLQPEDIATYYCQQGQSYPYTFGGGTKLEIKR | – | – | – | – | 1.6 | 3150 | – | – | – | – | –
5 | MIL-11 mab-02 (antibody, IgG1, V domains shown, also called 2E2 full-length antibody) VH: QVQLVQSGAEVKKPGASVKVSCKASDYTFTNYWLGWVRQAPGQGLEWMGHIYPGGGYTNYNEKFKGRVTMTRDTSTSTVYMELSSLRSEDTAVYYCARVSSGNDALDFWGQGTLVTVSS VL: EIVLTQSPATLSLSPGERATLSCRASESVDEYGISFMNWFQQKPGQAPRLLIYSASNQGSGIPARFSGSGSGTDFTLTISSLEPEDFAVYFCQQSKELPWTFGGGTKLEIK | – | – | – | – | – | – | 0.242 | 0.00013 | 535000 | ~2 | fold increase of affinity against the humanized antibody VH1+VL3 (IL-11 [6]): 10 fold
6 | VH1+VL3 full-length humanized antibody (antibody, human IgG1, kappa, V domains shown, IgG form, IgG1 Fc; also called VH1+VL3 mAb; CPD-2) VH: QVQLVQSGAEVKKPGASVKVSCKASDYTFTNYWLGWVRQAPGQGLEWMGHIYPGGGYTNYNEKFKGRVTMTRDTSTSTVYMELSSLRSEDTAVYYCARVRSGNDALDFWGQGTLVTVSS VL: EIVLTQSPATLSLSPGERATLSCRASESVDEYGISFMNWFQQKPGQAPRLLIYSASNQGSGIPARFSGSGSGTDFTLTISSLEPEDFAVYFCQQSKEVPWTFGGGTKLEIKR | 10.5 | 9.03 | 0.000474 | 52600 | – | – | 2.84 | 0.000609 | 214000 | ~2 | –
7 | 3-9E1-3A2 (antibody, human IgG1, kappa, V domains shown) VH: QIQLVQSGPELKKPGETVNISCRASGDTFTNYAVNWVKQAPGKGLKWMGWIDTYTGDPTYADDLKGRFAFSLETSATTAYLQINNLKNEDTATYFCAGDTWFAYWGQGTLVTVSA VL: not shown | – | – | – | – | 1.54 | 9070 | – | – | – | – | –

Now from value to binder, other results behind:

Row | EC50 [1] [µg/mL] | Kd (IL-11 [2]) [nM] | koff (IL-11 [2]) [s⁻¹] | kon (IL-11 [2]) [M⁻¹ s⁻¹] | OD450 (IL-11 [3]) [OD450] | FITC Mean (IL-11 [4]) [mean fluorescence] | Kd (IL-11 [5]) [nM] | koff (IL-11 [5]) [s⁻¹] | kon (IL-11 [5]) [M⁻¹ s⁻¹] | EC50 (read off the curve) [7] [µg/mL] | Binder | further results
8 | 7.54 | 6.41 | 0.000433 | 67600 | – | – | – | – | – | – | full-length chimeric antibody constructed by 5-20E11-5F2 (Example 15) (antibody, human IgG1, kappa, V domains shown, also called CPD-1; VH+VL) VH: QVQLQQSGAELVRPGTSAKISCKASDYTFTNYWLGWLKQRPGHGLEWIGHIYPGGGYTNYNEKFKGKATLTADTSSSTAYMQLSSLTSEDSAVYFCARVRSGNDALDFWGQGTSVTVSS VL: not shown | –
9 | 11.6 | 12 | 0.000597 | 49800 | – | – | – | – | – | – | VH1+VL2 full-length humanized antibody (antibody, human IgG1, kappa, V domains shown, IgG form, IgG1 Fc) VH: QVQLVQSGAEVKKPGASVKVSCKASDYTFTNYWLGWVRQAPGQGLEWMGHIYPGGGYTNYNEKFKGRVTMTRDTSTSTVYMELSSLRSEDTAVYYCARVRSGNDALDFWGQGTLVTVSS VL: EIVLTQSPATLSLSPGERATLSCRASESVDEYGISFMNWYQQKPGQAPRLLIYSASNQGSGIPARFSGSGSGTDFTLTISSLEPEDFAVYFCQQSKEVPWTFGGGTKLEIKR | –
10 | – | – | – | – | – | – | 1.17 | 0.000584 | 501000 | ~3 | MIL-11 mab-01 (antibody, IgG1, V domains shown, also called 1E12 full-length antibody) VH: QVQLVQSGAEVKKPGASVKVSCKASDYTFTNYWLGWVRQAPGQGLEWMGHIYPGGGYTNYNEKFKGRVTMTRDTSTSTVYMELSSLRSEDTAVYYCARVSSGNDALDLWGQGTLVTVSS VL: EIVLTQSPATLSLSPGERATLSCRASESVDEYGISFMNWFQQKPGQAPRLLIYSGSNEGSGIPARFSGSGSGTDFTLTISSLEPEDFAVYFCNQSKEVPWTFGGGTKLEIK | –
11 | 12.5 | 10 | 0.000545 | 54300 | – | – | – | – | – | – | VH1+VL4 full-length humanized antibody (antibody, human IgG1, kappa, V domains shown, IgG form, IgG1 Fc) VH: QVQLVQSGAEVKKPGASVKVSCKASDYTFTNYWLGWVRQAPGQGLEWMGHIYPGGGYTNYNEKFKGRVTMTRDTSTSTVYMELSSLRSEDTAVYYCARVRSGNDALDFWGQGTLVTVSS VL: EIVLTQSPATLSLSPGERATLSCRASESVDEYGISFMNWFQQKPGQAPRLLIYSASNQGSGIPARFSGSGSGTDFTLTISSLEPEDFAMYFCQQSKEVPWTFGGGTKLEIKR | –
12 | – | – | – | – | – | – | 0.262 | 0.000152 | 580000 | ~2 | MIL-11 mab-03 (antibody, IgG1, V domains shown, also called 1F12 full-length antibody) VH: QVQLVQSGAEVKKPGASVKVSCKASDYTFTNYWLGWVRQAPGQGLEWMGHIYPGGGYTNYNEKFKGRVTMTRDTSTSTVYMELSSLRSEDTAVYYCARVSSGNDALDFWGQGTLVTVSS VL: EIVLTQSPATLSLSPGERATLSCRASESVDEYGISFMNWFQQKPGQAPRLLIYSASNQASGIPARFSGSGSGTDFTLTISSLEPEDFAVYFCQQSKELPWTFGGGTKLEIK | fold increase of affinity against the humanized antibody VH1+VL3 (IL-11 [6]): 10 fold
13 | – | – | – | – | 1.63 | 3640 | – | – | – | – | 5-20E11-1A2 (antibody, V domains shown) VH: QVQLQQPGAELVRPGTSVKMSCKASGYTFTSYWMHWVKQRPGQGLEWIGDIYPGSDSTNYHEKFKSKATLTVDTSSSTAYMQLSSLTSEDSAVYYCALDSSGYGFAYWGQGTLVTVSA VL: NIVMTQTPKFLLVSAGDRVTITRKASQSVSNDVVWYQQKPGQSPKLLMYYASYRYTGVPDRFTGSGYGTDFTFTISNVQAEDLAVYFCQQDYSSPFTFGSGTKLEIK | –
